Sequences and labels used below:
B1: library; numbered along this chain (parent)
chain: MAAAGGARLLRAASAVLGGPAGRWLHHAGSRAGSSGLLRNRGPGGSAEASRSLSVSARARSSSEDKITVHFINRDGETLTTKGKVGDSLLDVVVENNLDIDGFGACEGTLACSTCHLIFEDHIYEKLDAITDEENDMLDLAYGLTDRSRLGCQICLTKSMDNMTVRVPETVADARQSIDVGKTS

Variants of B1 are the subject of this series. The experiment in a line: scaled log2 fold change in cell abundance, elesclomol vs control (0 = silent mean, 1 = nonsense mean) (scaled log2 ratio); higher = higher viability under elesclomol (loss of FDX1 cuproptosis function). To be noted: glucose 10 mM.
Setting [1] is: with ABC1 FDX1 KO, elesclomol 5 nM, 14 days.
[2] abbreviates: with HEK293T FDX1 KO, elesclomol 40 nM, 11 days.
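Note: variant abundance is its share of total variant reads in each endpoint sample, from next-generation sequencing of the integrated ORF PCR-amplified out of genomic DNA.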

On to MAAAGGARLLRAASAVLGGPAGRWLHHAGSRAGSSGLLRNRGPGGSAEASRSLSVSARARSSSEDKITVHFINRDGETLTTKGKVGDSLLDVVVENNLDIDGFGACEGTLACMTCHLIFEDHIYEKLDAITDEENDMLDLAYGLTDRSRLGCQICLTKSMDNMTVRVPETVADARQSIDVGKTS [S113M], for which, under setting [1], the “scaled log2 fold change” value was 0.304.
As to MAAAGGARLLRAASAVLGGPAGRWLHHAGSRAGSSGLLRNRGPGGSAEASRSLSVSARARSSSEDKITVHFINRDGETLTTKGKVGDSLLDVVVENNLDIDGFGACEGTLACVTCHLIFEDHIYEKLDAITDEENDMLDLAYGLTDRSRLGCQICLTKSMDNMTVRVPETVADARQSIDVGKTS [S113V], the “scaled log2 fold change” value by setting is: under setting [1], 0.242; under setting [2], -0.434.
Taken in the same sequence, the figures for MAAAGGARLLRAASAVLGGPAGRWLHHAGSRAGSSGLLRNRGPGGSAEASRSLSVSARARSSSEDKITVHFINRDGETLTTKGKVGDSLLDVVVENNLDIDGFGACEGTLACWTCHLIFEDHIYEKLDAITDEENDMLDLAYGLTDRSRLGCQICLTKSMDNMTVRVPETVADARQSIDVGKTS [S113W] were 0.446 and 0.762.
Consider MAAAGGARLLRAASAVLGGPAGRWLHHAGSRAGSSGLLRNRGPGGSAEASRSLSVSARARSSSEDKITVHFINRDGETLTTKGKVGDSLLDVVVENNLDIDGFGACEGTLACYTCHLIFEDHIYEKLDAITDEENDMLDLAYGLTDRSRLGCQICLTKSMDNMTVRVPETVADARQSIDVGKTS [S113Y], for which the “scaled log2 fold change” value by setting is: under setting [1], 0.038; under setting [2], 0.0184.
As to MAAAGGARLLRAASAVLGGPAGRWLHHAGSRAGSSGLLRNRGPGGSAEASRSLSVSARARSSSEDKITVHFINRDGETLTTKGKVGDSLLDVVVENNLDIDGFGACEGTLACTTCHLIFEDHIYEKLDAITDEENDMLDLAYGLTDRSRLGCQICLTKSMDNMTVRVPETVADARQSIDVGKTS [S113T], the “scaled log2 fold change” value is 0.186 under setting [1] and 0.232 under setting [2].
For the variant MAAAGGARLLRAASAVLGGPAGRWLHHAGSRAGSSGLLRNRGPGGSAEASRSLSVSARARSSSEDKITVHFINRDGETLTTKGKVGDSLLDVVVENNLDIDGFGACEGTLACRTCHLIFEDHIYEKLDAITDEENDMLDLAYGLTDRSRLGCQICLTKSMDNMTVRVPETVADARQSIDVGKTS [S113R], the “scaled log2 fold change” value was determined as 0.116 under setting [1] and 0.165 under setting [2].
Turning to MAAAGGARLLRAASAVLGGPAGRWLHHAGSRAGSSGLLRNRGPGGSAEASRSLSVSARARSSSEDKITVHFINRDGETLTTKGKVGDSLLDVVVENNLDIDGFGACEGTLACQTCHLIFEDHIYEKLDAITDEENDMLDLAYGLTDRSRLGCQICLTKSMDNMTVRVPETVADARQSIDVGKTS [S113Q], the “scaled log2 fold change” value is -0.139 under setting [1] and -0.137 under setting [2].
Taken in the same sequence, the figures for MAAAGGARLLRAASAVLGGPAGRWLHHAGSRAGSSGLLRNRGPGGSAEASRSLSVSARARSSSEDKITVHFINRDGETLTTKGKVGDSLLDVVVENNLDIDGFGACEGTLACPTCHLIFEDHIYEKLDAITDEENDMLDLAYGLTDRSRLGCQICLTKSMDNMTVRVPETVADARQSIDVGKTS [S113P] were 1.03 and 1.16.
Taken in the same sequence, the figures for MAAAGGARLLRAASAVLGGPAGRWLHHAGSRAGSSGLLRNRGPGGSAEASRSLSVSARARSSSEDKITVHFINRDGETLTTKGKVGDSLLDVVVENNLDIDGFGACEGTLACNTCHLIFEDHIYEKLDAITDEENDMLDLAYGLTDRSRLGCQICLTKSMDNMTVRVPETVADARQSIDVGKTS [S113N] were -0.0206 and 0.213.

For the origin of these results see the supplement of paper PMC12855868.
